Results on 1 substance are retold here after publication doi:10.1101/2021.01.30.428974.

Test [1] deals with wild-type Murine polyomavirus VP1 (Murine polyomavirus) (UniProt P03090). Briefly: co-sedimentation.
The target of test [2] is Murine polyomavirus VP1 with the putative nuclear localisation signal deleted (Murine polyomavirus) (UniProt P03090). Briefly: co-sedimentation.

Take VP2C-GFP: the stoichiometry N (GFP per wtVP1 VLP) in test [1] turned out to be 59. In test [2], this substance had a stoichiometry N (GFP per ΔVP1 VLP) of 72.
